According to US7579180B2, “Beta secretase polypeptides” (Amgen Inc., priority 1999, dated 2009):

Molecular target: T1, human beta-secretase-Fc fusion (Homo sapiens, UniProt P56817)
T1 construct: A plasmid containing cDNA encoding amino acids 1-460 of beta-secretase fused to the Fc portion of human IgG; made in house; host or cells: human embryonic kidney 293T cells, stably transfected; purified from conditioned medium on protein A
Assay: Beta-secretase activity assay: cleavage of DNP-labeled APP peptides, HPLC
Assay type: biochemical
Conditions: Sw, Wt and MV peptides; FIG. 11
Method: FIG. 11 is a graph depicting the ability of human beta-secretase-Fc fusion to cleave various APP peptides. The X-axis is the amount of enzyme in the reaction mixture and the Y-axis is the amount of cleavage (denoted as pmol product formed) of each of three substrate peptides. “Sw” refers to the APP peptide with the Swedish mutation; “Wt” refers to wild type APP peptide; and “MV” refers to a mutated APP peptide.
Recombinant native as well as mutant beta secretase polypeptides were assayed for activity by measuring the ability of the molecule to cleave various A-beta peptides.
Each assay was conducted as follows. […] Quenched reactions were analyzed by HPLC on a 5 μm, C18 reversed-phase column (Sephasil Peptide, 4.6×100 mm; Amersham Pharmacia Biotech, Piscataway, N.J.) using first a linear gradient of 18-31.5 percent acetonitrile in 0.1 percent TFA over 40 minutes, then 31.5-81 percent acetonitrile for 1 minute, then 81 percent acetonitrile for 4 minutes, and then returning to 18-percent acetonitrile for several minutes to reequilibrate the column. […] Proteolysis of the Sw and WT octapeptides was evaluated using a linear gradient of 27-37.8 percent acetonitrile over 24 minutes on the same column.
Both product and substrate were monitored by absorbance at 360 nm. […]
The concentration of standard was determined from the extinction coefficient of DNP (e365nm=16 mM^−1cm^−1). […]

T1 sequence (P56817 with tags, fused parts or gaps limits assumed): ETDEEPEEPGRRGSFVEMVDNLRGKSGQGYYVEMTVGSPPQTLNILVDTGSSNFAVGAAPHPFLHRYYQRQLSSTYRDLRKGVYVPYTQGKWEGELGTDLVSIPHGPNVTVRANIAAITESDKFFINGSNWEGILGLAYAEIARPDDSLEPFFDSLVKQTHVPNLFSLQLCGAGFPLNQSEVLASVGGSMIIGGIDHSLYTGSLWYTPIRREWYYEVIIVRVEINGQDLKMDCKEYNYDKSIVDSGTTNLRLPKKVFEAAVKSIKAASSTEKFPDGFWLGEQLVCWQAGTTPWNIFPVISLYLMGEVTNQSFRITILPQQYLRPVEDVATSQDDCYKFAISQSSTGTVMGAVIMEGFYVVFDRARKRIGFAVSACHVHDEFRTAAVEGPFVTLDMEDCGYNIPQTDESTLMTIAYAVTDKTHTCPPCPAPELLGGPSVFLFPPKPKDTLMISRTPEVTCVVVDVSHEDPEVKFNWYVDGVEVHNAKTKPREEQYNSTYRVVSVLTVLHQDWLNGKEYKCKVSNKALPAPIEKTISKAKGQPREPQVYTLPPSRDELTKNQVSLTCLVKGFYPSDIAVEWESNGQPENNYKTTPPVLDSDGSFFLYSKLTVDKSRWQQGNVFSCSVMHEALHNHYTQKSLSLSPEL

B1: beta-secretase-Fc: amino acids 1-460 of human beta-secretase fused to the Fc portion of human IgG1, alanine-valine-threonine at the junction (protein)
chain: TQHGIRLPLRSGLGGAPLGLRLPRETDEEPEEPGRRGSFVEMVDNLRGKSGQGYYVEMTVGSPPQTLNILVDTGSSNFAVGAAPHPFLHRYYQRQLSSTYRDLRKGVYVPYTQGKWEGELGTDLVSIPHGPNVTVRANIAAITESDKFFINGSNWEGILGLAYAEIARPDDSLEPFFDSLVKQTHVPNLFSLQLCGAGFPLNQSEVLASVGGSMIIGGIDHSLYTGSLWYTPIRREWYYEVIIVRVEINGQDLKMDCKEYNYDKSIVDSGTTNLRLPKKVFEAAVKSIKAASSTEKFPDGFWLGEQLVCWQAGTTPWNIFPVISLYLMGEVTNQSFRITILPQQYLRPVEDVATSQDDCYKFAISQSSTGTVMGAVIMEGFYVVFDRARKRIGFAVSACHVHDEFRTAAVEGPFVTLDMEDCGYNIPQTDESTLMTIAYAVT
modifications: left off: a dimerising Fc or GST
notes: amino acids 1-460 of human beta-secretase fused to the Fc portion of human IgG1, alanine-valine-threonine at the junction
- substrate specificity of the enzyme: has the same substrate specificity that has previously been described for beta-secretase from intact cells
